From IntAct's records for PubMed 29039417

B1: Isoform 2 of Bardet-Biedl syndrome 7 protein (Homo sapiens), Q8IWZ6-2 (parent)
chain: MDLILNRMDYLQVGVTSQKTMKLIPASRHRATQKVVIGDHDGVVMCFGMKKGEAAAVFKTLPGPKIARLELGGVINTPQEKIFIAAASEIRGFTKRGKQFLSFETNLTESIKAMHISGSDLFLSASYIYNHYCDCKDQHYYLSGDKINDVICLPVERLSRITPVLACQDRVLRVLQGSDVMYAVEVPGPPTVLALHNGNGGDSGEDLLFGTSDGKLALIQITTSKPVRKWEIQNEKKRGGILCIDSFDIVGDGVKDLLVGRDDGMVEVYSFDNANEPVLRFDQMLSESVTSIQGGCVGKDSYDEIVVSTYSGWVTGLTTEPIHKESGPGEELKINQEMQNKISSLRNELEHLQYKVLQERENYQQSSQSSKAKSAVPSFGINDKFTLNKDDASYSLILEVQTAIDNVLIQSDVPIDLLDVDKNSAVVSFSSCDSESNDNFLLATYRCQADTTRLELKIRSIEGQYGTLQAYVTPRIQPKTCQVRQYHIKPLSLHQRTHFIDHDRPMNTLTLTGQFSFAEVHSWVVFCLPEVPEKPPAGECVTFYFQNTFLDTQLESTYRKGEGVFKSDNISTISILKDVLSKEATKRKINLNISYEINEVSVKHTLKLIHPKLEYQLLLAKKVQLIDALKELQIHEGNTNFLIPEYHCILEEADHLQEEYKKQPAHLERLYG
partner: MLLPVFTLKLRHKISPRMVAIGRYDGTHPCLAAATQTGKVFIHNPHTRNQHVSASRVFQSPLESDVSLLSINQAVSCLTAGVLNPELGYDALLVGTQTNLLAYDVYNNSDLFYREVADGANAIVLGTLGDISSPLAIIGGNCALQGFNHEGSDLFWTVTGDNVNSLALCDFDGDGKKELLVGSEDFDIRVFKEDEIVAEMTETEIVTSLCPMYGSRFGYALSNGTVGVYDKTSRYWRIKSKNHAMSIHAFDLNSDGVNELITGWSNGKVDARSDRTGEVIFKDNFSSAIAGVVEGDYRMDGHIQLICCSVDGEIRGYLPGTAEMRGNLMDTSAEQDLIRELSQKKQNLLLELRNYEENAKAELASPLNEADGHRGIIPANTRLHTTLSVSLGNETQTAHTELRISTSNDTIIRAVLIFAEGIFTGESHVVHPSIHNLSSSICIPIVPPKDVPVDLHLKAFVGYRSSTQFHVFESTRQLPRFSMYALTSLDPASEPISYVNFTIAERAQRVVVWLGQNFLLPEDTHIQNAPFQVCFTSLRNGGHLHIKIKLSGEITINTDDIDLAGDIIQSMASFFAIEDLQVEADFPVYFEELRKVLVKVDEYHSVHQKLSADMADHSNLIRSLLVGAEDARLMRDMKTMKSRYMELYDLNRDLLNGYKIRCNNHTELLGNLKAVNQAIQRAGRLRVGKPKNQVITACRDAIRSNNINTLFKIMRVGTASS

Variants of: B1
Settings: with bbs2_human BBS2, Q9BXC9

Row | Variant | effect of a mutation on the interaction
1 | P535K | with no effect
2 | P535A | with no effect
3 | P535E | with no effect
4 | C540K | with no effect
5 | C540E | with no effect
6 | C540A | with no effect
7 | Q514A | with no effect
8 | Q514K | with no effect
9 | Q514E | with no effect
10 | A518K | with no effect
11 | A518E | with no effect
12 | T512K | with no effect
13 | T512E | with no effect
14 | T512A | with no effect
15 | A537E | with no effect
16 | A537K | with no effect
17 | C527A | with no effect
18 | C527E | with no effect
19 | C527K | with no effect
20 | S522K | with no effect
21 | S522A | with no effect
22 | S522E | disrupting interaction strength
23 | E530K | with no effect
24 | E530A | with no effect

Row | Variant | effect of a mutation on the interaction
25 | F515E | with no effect
26 | F515K | disrupting interaction strength
27 | F515A | with no effect
28 | P529E | with no effect
29 | P529K | with no effect
30 | P529C | disrupting interaction strength
31 | P529A | with no effect
32 | P529S | disrupting interaction strength
33 | E539K | with no effect
34 | E539A | with no effect
35 | T542E | with no effect
36 | T542A | with no effect
37 | T542K | with no effect
38 | V541E | with no effect
39 | V541K | with no effect
40 | V541A | with no effect
41 | E519A | with no effect
42 | E519K | with no effect
43 | V524A | with no effect
44 | V524E | with no effect
45 | V524K | with no effect
46 | G513K | with no effect
47 | G513H | disrupting interaction strength
48 | G513E | with no effect

Row | Variant | effect of a mutation on the interaction
49 | G513A | with no effect
50 | G513Y | disrupting interaction strength
51 | G513D | disrupting interaction strength
52 | G513S | disrupting interaction strength
53 | L509K | with no effect
54 | L509A | with no effect
55 | L509E | with no effect
56 | L509P | disrupting interaction strength
57 | V525K | with no effect
58 | V525A | with no effect
59 | V525E | with no effect
60 | K534A | with no effect
61 | K534E | with no effect
62 | E533K | with no effect
63 | E533A | with no effect
64 | T508K | with no effect
65 | T508E | with no effect
66 | T508A | with no effect
67 | F545E | with no effect
68 | F545K | with no effect
69 | F545A | with no effect
70 | V520K | with no effect
71 | V520A | with no effect
72 | V520E | with no effect

Row | Variant | effect of a mutation on the interaction
73 | V531E | with no effect
74 | V531K | with no effect
75 | V531A | with no effect
76 | L511P | disrupting interaction strength
77 | L511E | with no effect
78 | L511A | with no effect
79 | L511K | with no effect
80 | L528A | with no effect
81 | L528K | with no effect
82 | L528E | with no effect
83 | N507E | with no effect
84 | N507K | with no effect
85 | H521K | with no effect
86 | H521E | with no effect
87 | H521A | with no effect
88 | Y544A | with no effect
89 | Y544K | with no effect
90 | Y544E | with no effect
91 | W523K | with no effect
92 | W523A | disrupting interaction strength
93 | W523E | with no effect
94 | S516E | with no effect
95 | S516K | with no effect
96 | S516A | with no effect

Row | Variant | effect of a mutation on the interaction
97 | P536E | with no effect
98 | P536A | with no effect
99 | P536K | with no effect
100 | P532E | with no effect
101 | P532K | with no effect
102 | P532A | with no effect
103 | F517K | with no effect
104 | F517A | with no effect
105 | F517E | with no effect
106 | Q546E | with no effect
107 | Q546A | with no effect
108 | F543E | with no effect
109 | F543K | with no effect
110 | F543A | with no effect
111 | F526A | with no effect
112 | F526E | with no effect
113 | F526K | with no effect
114 | G538K | with no effect
115 | G538A | with no effect
116 | G538E | with no effect
117 | T510A | with no effect
118 | T510E | with no effect
119 | T510K | with no effect

Second part, the variant after the results:

Row | effect of a mutation on the interaction | Variant
120 | with no effect | R559A
121 | with no effect | R559E
122 | with no effect | R559K
123 | with no effect | N547K
124 | with no effect | N547A
125 | with no effect | N547E
126 | with no effect | K560E
127 | with no effect | K560A
128 | with no effect | K566E
129 | with no effect | K566A
130 | with no effect | F549A
131 | with no effect | F549K
132 | with no effect | F549E
133 | with no effect | E562A
134 | with no effect | E562K
135 | with no effect | Q553K
136 | with no effect | Q553E
137 | with no effect | Q553A
138 | with no effect | Y558E
139 | with no effect | Y558A
140 | with no effect | Y558K

Row | effect of a mutation on the interaction | Variant
141 | with no effect | T548K
142 | with no effect | T548E
143 | with no effect | T548A
144 | disrupting interaction strength | T548S
145 | disrupting interaction strength | G563R
146 | with no effect | G563A
147 | with no effect | G563E
148 | with no effect | G563K
149 | with no effect | F565E
150 | with no effect | F565K
151 | with no effect | F565A
152 | with no effect | L550K
153 | with no effect | L550A
154 | with no effect | L550E
155 | with no effect | T557A
156 | with no effect | T557E
157 | with no effect | T557K
158 | with no effect | D551A
159 | with no effect | D551E
160 | with no effect | D551K
161 | with no effect | S556E

Row | effect of a mutation on the interaction | Variant
162 | with no effect | S556K
163 | with no effect | S556A
164 | with no effect | V564A
165 | with no effect | V564E
166 | with no effect | V564K
167 | with no effect | E555A
168 | with no effect | E555K
169 | with no effect | L554E
170 | with no effect | L554A
171 | with no effect | L554K
172 | with no effect | G561K
173 | disrupting interaction strength | G561S
174 | with no effect | G561E
175 | with no effect | G561A
176 | disrupting interaction strength | G561R
177 | with no effect | Q546K
178 | with no effect | T552E
179 | with no effect | T552K
180 | with no effect | T552A
